{
  "source": "patent US6143719A",
  "about": "“Bradykinin analogs as selective thrombin inhibitors” (The Regents of the University of Michigan, priority 1996, dated 2000)",
  "key": {"[1]": {"assay": "water solubility of synthesized peptides", "type": "physicochemical"}, "human platelets": {"test_system": "human platelets", "type": "cell-based", "settings": "FIG. 2, concentration not given", "description": "The cytoplasmic free Ca^2+ concentration ([Ca^2+ ]i) was measured using the fluorescent Ca^2 + indicator fura-2 (Molecular Probes, Inc., Eugene, Oreg.). Gel filtered platelets in Hepes-Tyrode's buffer were loaded with fura-2 by incubation at 37° C. with 1 μM fura-2/acetoxymethyl ester for 45 min according to the method of Rasmussen et al., J. Biol. Chem. 268, 14322 (1993). The labeled platelets were then re-gel filtered to remove any excess probe. Aliquots of the labeled platelet suspension were transferred into a quartz cuvette with a magnetic stirrer, which was then placed in a thermostatically controlled chamber at 37° C. in a fluorescence spectrophotometer (Dual Wave Length Shimazdu SP5000 Spectrofluorometer, Shimazdu USA, Pittsburgh, Pa.). Reagents were directly added to the cuvette. The excitation wave lengths varied between 340 and 380 nm. The fluorescence was measured by recording emitted light at 510 nm as reported by Fisher et al, Mol. Pharm. 35, 195 (1989). The minimum emission was determined on a 20 mM digitonin, 10 mM EGTA solubilized platelet sample; maximum emission was determined on the same sample with 10 mM Ca^2+ added. The intraplatelet free Ca^2+ concentration was calculated by the method of Grykiewicz et al., J. Biol. Chem. 260, 3440 (1985). The ratio of the fluorescence readings was calculated as R=340/380 nm and processed according to the equation [Ca^2+ ]i =KD ((R-Rmin)/Rmax -R))(Sf2 /Sb2) to determine the intraplatelet free Ca^2+ concentration. The KD for fura-2 was assumed to be 224 nM. Rmax and Rmin are the maximum and minimum fluorescence ratios measured at the end of the experiment, respectively; Sf2 and Sb2 are the fluorescence values at 380 nm in the absence and presence of saturating [Ca^2+ ], respectively."}, "α-thrombin": {"molecular_target": "α-thrombin (Homo sapiens, UniProt P00734)", "assay": "α-thrombin cleavage of thrombin receptor peptide NAT12 (HPLC)", "type": "biochemical", "set-up": "cleavage product peak 3, share of NAT12 peak 1 area / cleavage product peak 2, share of NAT12 peak 1 area: dose or concentration left out as unconfirmed", "description": "A further study was performed to determine whether BK analogs prevent α-thrombin from cleaving the thrombin receptor reported by Vu et al., Cell 64, 1057 (1991). A peptide, NAT12 (SEQ ID NO:2), which spans amino acids […] of the α-thrombin cleavage site on the thrombin receptor, was used to determine whether the BK analogs described herein blocked α-thrombin cleavage of the cloned receptor.\nThe cleavage study was performed according to the method of Molino et al., J. Biol. Chem. 270,11168(1995),inwhichNAT12(SEQ ID NO:2) was dissolved in a solution of 0.01 M NaH2 PO4 and 0.15 M NaCl, pH 7.4. […] Following incubation, each mixture was separated by applying the mixture to a Vyadec C-18 HPLC column in 0.1% trifluoroacetic acid and eluting the mixture with a gradient from 0% to 100% of 80% MeCN and 0.1% trifluoroacetic acid. The size of the separated products were confirmed by mass spectrometry."}, "[2]": {"assay": "procoagulant activity of purified HK", "set-up": "species or system human", "settings": "HK purified from plasma", "description": "HK was purified from plasma by a modification of the procedures of Johnson et al., Thromb. Res. 48, 187 (1987) and Muller-Esterl et al., Methods Enzymol 163, 240 (1987). One hundred ml of 1 mM DFP-treated fresh frozen plasma was thawed at 37° C., to which 10 mM benzamidine-HCI, 40 μg/ml Polybrene, 2 mM EDTA, 0.2 mM PMSF, 0.2 mg/ml soybean trypsin inhibitor, 100 U/ml aprotinin and 2 M NaCl were added according to the method of Schmaier et al., Methods in Enzymology 169, 276 (1989). The treated plasma was then applied to a 2.5×20 cm column of CM-papain-SEPHAROSE 4B equilibrated in 50 mM phosphate buffer containing 2 M NaCl, 1 mM benzamidine-HCl, 40 μg/mL Polybrene, 0.2 mM PMSF, 0.02% (w/v) NaN3, pH 7.5. The CM-papain-SEPHAROSE 4B column was prepared by the procedure of Johnson et al., Thromb Res. 48, 187 (1987). HK and LK were eluted in a single peak after the addition of a 50 mM phosphate buffer solution containing 2 mM EDTA and 0.02% (w/v) NaN3, pH 11.5. Five ml fractions were collected into tubes containing 0.25 ml of a solution consisting of 4 mM PMSF in 1 M sodium acetate, pH 4.2 to bring the final pH to 6.0. The fractions containing HK and LK were then applied to a reactive Blue-Sepharose column (Sigma Chemical Corp, St. Louis, Mo.) equilibrated with 0.01 M sodium acetate pH 6.8 by the methods reported by Hasan et al., J. Biol. Chem. 269, 31822 (1994). […]"}, "washed platelets": {"test_system": "washed platelets", "assay": "125I-α-thrombin binding to platelets", "set-up": "species or system human", "settings": "200 nM HK", "description": "Gel filtered platelets were placed into polypropylene tubes and diluted with Hepes-Tyrode's buffer, containing 2 mM CaCl2 and 50 μM ZnCl2 and additions, to a final concentration of 2×10^8 platelets/ml. The reaction was started by the addition of 1 nM ^125 I-α-thrombin, which was prepared by using the iodogen technique as reported by Meloni et al., J. Biol. Chem. 266, 6786 (1991). Incubations were performed at 37° C. for specified times with various additions. After incubation, 50 μl aliquots were removed in triplicate for each experimental point and placed in polypropylene microcentrifuge tubes with an extended tip containing 200 μl of an oil mixture which consisted of 1 part Apiezon A oil to 9 parts of n-butylphthalate (Gustafson et al., J. Clin. Invest. 78, 810 (1986)), and centrifuged at room temperature for 2 min at 10,900× g in a microcentrifuge. (Model E, Beckman Instruments, Palo Alto, Calif.) The supernatant was removed and the tips amputated for placement in the gamma counter. The radioactivity present in the cell pellet was determined with an LKB Rack Gamma Counter (LKB Instruments, Inc., Gaithersburg, Md.). Nonspecific binding was measured in the presence of a 100-fold molar excess of α-thrombin."}},
  "data": [
    {"molecule": "SEQ ID NO:15: synthesized hydrophobic peptide, sequence not printed (NATFYFKIDNVKKARVQVVAGKKYFI)", "values": [
      {"measurement": "water solubility", "setting": "[1]", "value": "hydrophobic requiring 0.01% DMSO in order to solubilize it"}
    ]},
    {"molecule": "HK: human high molecular weight kininogen purified from plasma (protein, UniProt P01042 19-644, looked up, high molecular weight kininogen) Kininogen-1: QESQSEEIDCNDKDLFKAVDAALKKYNSQNQSNNQFVLYRITEATKTVGSDTFYSFKYEIKEGDCPVQSGKTWQDCEYKDAAKAATGECTATVGKRSSTKFSVATQTCQITPAEGPVVTAQYDCLGCVHPISTQSPDLEPILRHGIQYFNNNTQHSSLFMLNEVKRAQRQVVAGLNFRITYSIVQTNCSKENFLFLTPDCKSLWNGDTGECTDNAYIDIQLRIASFSQNCDIYPGKDFVQPPTKICVGCPRDIPTNSPELEETLTHTITKLNAENNATFYFKIDNVKKARVQVVAGKKYFIDFVARETTCSKESNEELTESCETKKLGQSLDCNAEVYVVPWEKKIYPTVNCQPLGMISLMKRPPGFSPFRSSRIGEIKEETTVSPPHTSMAPAQDEERDSGKEQGHTRRHDWGHEKQRKHNLGHGHKHERDQGHGHQRGHGLGHGHEQQHGLGHGHKFKLDDDLEHQGGHVLDHGHKHKHGHGHGKHKNKGKKNGKHNGWKTEHLASSSEDSTTPSAQTQEKTEGPTPIPSLAKPGVTVTFSDFQDSDLIATMMPPISPAPIQSDDDWIPDIQIDPNGLSFNPISDFPDTTSPKCPGRPWKSVSEINPTTQMKESYYFDLTDGLS", "values": [
      {"measurement": "inhibition of α-thrombin-induced calcium mobilization", "setting": "human platelets", "value": "inhibited"},
      {"measurement": "cleavage product peak 2, share of NAT12 peak 1 area", "setting": "α-thrombin", "value": 14, "unit": "%"},
      {"measurement": "cleavage product peak 3, share of NAT12 peak 1 area", "setting": "α-thrombin", "value": 18, "unit": "%"},
      {"measurement": "reduction of NAT12 peak 1 area after α-thrombin", "setting": "α-thrombin; 8 nM α-thrombin", "value": 32, "unit": "%"},
      {"measurement": "specific activity (procoagulant activity)", "setting": "[2]", "value": "11-22 U/mg"},
      {"measurement": "inhibition of 125I-α-thrombin binding to platelets", "setting": "washed platelets", "value": "able to inhibit"}
    ]}
  ]
}
